According to the DeepSol protein solubility set:

Assay: soluble on expression in E. coli; label from the status in PepcDB or PDB records
In the case of “MAHHHHHHMATPKQKETICEAAIVGFSFNKDRTEAVFSPNNHLLYIVSCKDIKDCSTWEIYATLEHHDQSVSATAWHGSTNRILSCSQDRTAFVWQRNAKGKWKPQMVMLDAGVKRGLTSCAWNHSGSKIYVGSAASNIAVGRFDAENEWWICRLLEGHTSTVTALAPHPSDDTLLLSGGTDGRLMLISTFMKKLDGKKSSSFGHVYLEKCFGAWVHAIAWAPSGQRFAVATHDSRVHVFDIPSVDNLSESIDEGLAIYSVSLAILPLKSLAFVLEDHLVGGGFDYFPALFQPSKKGTGWTMSGKWTMTRVKGAKTAQQIAREKFQNEARIGQAELLEEEQTRHKNTINGVLTLIDDGAAFKSAMEGPVFATASLDGRVEVWTIRDMIPII”, the “soluble on expression in E. coli” value is reported as “not soluble”. With “MRTHDDTWDIKTSVGATAVMVAAARAVETDRPDPLIRDPYARLLVTNAGAGAIWEAMLDPTLVAKAAAIDAETAAIVAYLRSYQAVRTNFFDTYFASAVAAGIRQVVILASGLDSRAYRLDWPAGTIVYEIDQPKVLSYKSTTLAENGVTPSAGRREVPADLRQDWPAALRDAGFDPTARTAWLAEGLLMYLPAEAQDRLFTQVGAVSVAGSRIAAETAPVHGEERRAEMRARFKKVADVLGIEQTIDVQELVYHDQDRASVADWLTDHGWRARSQRAPDEMRRVGRWVEGVPMADDPTAFAEFVTAERL” the “soluble on expression in E. coli” value was “soluble”. For “MAHHHHHHMAPLKTQAPSNRSLLGYPLRRAAAMEMLYGGICIQHLAQPPFPLRTIQSESLPPPSLQGERDDLELEVKDSTGNVMGYRLFPVNIGIRARTESVRVRSEDCYKRFLAQKHCAAAGVPLQFPAPSSITNSNCLATPRAASHFHPPSSSLSLFTRPADSQGGDVGRTTPADVAAYHPRAWRPYQMLKPMPHNWGPAVRSSGVRGPHMQLLQERIDKKGFGWKRKSRSLWQQDISTAGFRPKRYF”, the “soluble on expression in E. coli” value was “not soluble”. For “MKIPSLQSNFNFSAPAGYSAPIAPNRAENAYADYVLDIGKRIPLSAADLSNVYESVIRAVHDSRSRLIDQHTVDMIGNTVLDALSRSQTFRDAVSYGIHNEKVHIGCIKYRNEYELNEESSVKIDDIQSLTCNELYEYDVGQEPIFPICEAGENDNEEPYVSFSVAPDTDSYEMPSWQEGLIHEIIHHVTGSSDPSGDSNIELGPTEILARRVAQELGWSVPDFKGYAEPEREAHLRLRNLNALRQAAMRHEENERAFFERLGTISDRYEASPDFTEYSAVSNIGYGFIQQHDFPGLAINDNLQDANQIQLYHGAPYIFTFGDVDKHNQQ”, the “soluble on expression in E. coli” value was “soluble”. In the case of “MAGKVKWVTDIEKSVLINNFEKRGWIQVTDSEDWNFYWMSIQTIRTVFSVDTGYRLTDDQMVNHFPNHYELTRKDLMIKNIKRYRRELEKENSALAEKDDSGKYIYLDFVPVTFMLPADYNLFVEEFRKSPSSTWIMKPCGKAQGKGIFLINKLSQIKKWSRDSRTSTFVAANSGKEAYVISLYIDNPLLIGGKKFDLRLYVLVTTYRPLKCYMWVQESSE”, the “soluble on expression in E. coli” value is reported as “not soluble”. For “SPVSPAGSHKQQNFGLNNATQPKKSISFFATMKATSVKGYTGANQSRMAVSKTVLIPPELKTVEKPNPNIKTTQVFDINGTDVTPRPLYHPDPLTGTAKPSKLLTSQEGSLGSEFISSYSLYQNTINPSTLGQFTRSVLGSSTVSKSSVSASESIAEDLEEPSYKRERLTSFTDLQVIRAAPEKIVTKEDLEKNIEIILTETETLRFFDLPTVMVSVESEEAEKVTQRNKNYEVLCRNRLGNDLYVERMMQTFNGAPKNKDVQCDKIIMEDKGIMSTAWDLYDSYNAMELVSLSVKQSVVESSSKANVLPKDQDQRLPGSTTEKNSETSSLMDIENVILAKIHEDEEDHSDAILKSDKFHQDLFFMERVLMENIFQPKLAAYRQLPVLKEPEPEEPEDVLESAKHEEVEEESKKEEEEEIHAEESTIPANLERLWSFSCDLTKGLNVSSLAWNKTNPDLLAVGYGHFGFKEQKRGLACCWSIKNPMVTQTRIRSIFIWLLTKFS”, the “soluble on expression in E. coli” value was “soluble”. With “MSLPNIFVEELVHTPIEKQVIEIVERKGIGHPDSLADGMAEAMSRELSREYIRRFGAVLHHNTDETQIVAGRSNPQFGGGEVIEPIYVLLVGRATKFFNGEYIPTDKIALKAARDYIRQHMQNLDPELDVVFNVRLGEGSTDLQDVFRRKSGNVALANDTSFGIGFAPLSETERLVFNVERRIYEEFRKKNPAIGEDVKVMGLREKDRISLTIAAAFVDRYVANIKEYDAIKEELENFVKEISSEYTEREVEVFVNTADDYETGCVYLTVTGTSAENGDDGSVGRGNRCNGLITPGRPMSMEASSGKNPINHVGKIYNLLANQIAARIAEEVEGVEEVYVRILSQIGKPINEPKALSVQVIPKSGYDISKLERPARDIAEEMIANVGKITDMVIEGKVRTFEGHHHHHH” the “soluble on expression in E. coli” value was “soluble”. For “MKDVAKLLKILPPTFNETVLLPVQTQLKEHYPRTVSLVKNLVSPLPEEYRFLTEVLLSVLLSGEISETIPYQALLVAHGESTATSIQAVANKLCGTYIFDAINMPLTSSVRDIVAEVKEWLSQRDTSQGVIMLVDMGSLTQLYKSLKPQILGELLVINNLTTAYALEIGHQLMNEQLFYGIAKTAEKKFKTDVQYFEGFSVEKNIIVSSISGLDIAKQIKQICQKYLYTDIKVITLKYKDLVNTLDIANAEENYLKETSLILTTSYLDNHTNVASVNLLDMLDEDAGTQLMEPFQNLMHPNNIDSMINEFVHFFSKEGLSEKLEFLNPDVIIKQVENVTKNIEKRFDLTLSGKMKFNLMMHNALMVERTMLGVEDYEIPANLEELTINQKPFFQNAKNIFYTLEQFYRIEISNWELYVIYEILSSR”, the “soluble on expression in E. coli” value was “not soluble”. For “GSHMNLKEQLCFSLYNAQRQVNRYYSNKVFKKYNLTYPQFLVLTILWDESPVNVKKVVTELALDTGTVSPLLKRMEQVDLIKRERSEVDQREVFIHLTDKSETIRPELSNASDKVASASSLSQDEVKELNRLLGKVIHAFDE”, the “soluble on expression in E. coli” value was “soluble”. In the case of “VRILVTGGVRSGKSTHAEALLGDAADVVYVAPGRPAAGSDPDWDARVALHRARRPPTWLTVETADVATALSEARSPVLVDCLGTWLTAIMDGEALWSAATADVYAVLEARLDGLCAALTGLPTAIVVTNEVGLGVVPSHSSGVLFRDLLGTINRRVAAVCDEVHLVIAGRVLKL”, the “soluble on expression in E. coli” value is reported as “soluble”. With “MGIDVVMTNRRGEPPPELSTLPCFPFKWEQQGEQLPLAPAALEGVTHVLNGIPPDRQGEDAVALALLPQLEKLNLHWFGYLSTTGVYGDRQGGWVDETTPVNPQNLRSQHRVRIEQVFLNANLPTHIFRLPGIYGPGEGRNPIARILKGDVQLIDKPGHYFCRIHVADIVQTLERSLAQPTPQEIYNLSDDQPSESLPVLLEAYRLLGRPAPPAIPLEAANLSPMAQSFWRESRRVRNDKIKQALGVQLRYPSYREGLRAIARELGLEHHHHHH” the “soluble on expression in E. coli” value was “not soluble”. For “MTPPEERQMLRETVASLVAKHAGPAAVRAAMASDRGYDESLWRLLCEQVGAAALVIPEELGGAGGELADAAIVVQELGRALVPSPLLGTTLAELALLAAAKPDAQALTELAQGSAIGALVLDPDYVVNGDIADIVVAATSGQLTRWTRFSAQPVATMDPTRRLARLQSEETEPLCPDPGIADTAAILLAAEQIGAAERCLQLTVEYAKSRVQFGRPIGSFQALKHRMADLYVTIAAARAVVADACHAPTPTNAATARLAASEALSTAAAEGIQLHGGIAITWEHDMHLYFKRAHGSAQLLESPREVLRRLESEVWESP”, the “soluble on expression in E. coli” value was “not soluble”. With “MKKIVLYGGQFNPIHTAHMIVASEVFHELQPDEFYFLPSFMSPLKKHHDFIDVQHRLTMIQMIIDELGFGDICDDEIKRGGQSYTYDTIKAFKEQHKDSELYFVIGTDQYNQLEKWYQIEYLKEMVTFVVVNRDKNSQNVENAMIAIQIPRVDISSTMIRQRVSEGKSIQVLVPKSVENYIKGEGLYEH” the “soluble on expression in E. coli” value was “soluble”. With “MSELRALIREILVEELAALRAAPAATPACEMVDVHSDEALMAFARDLLGRANDPEFVRCVQSGQHRFTLAPTVAQPPGQRPAPAASFTLVASAPAEAPRFEKALVTERDVAAIPRDQSRIRLARNTRLTPLASDELRRRGIRIERTQK” the “soluble on expression in E. coli” value was “not soluble”. With “MGSDKIHHHHHHMSDKTNLSHNVVNKEEFAGDPKPHPAAYTLVREDKGLGSTPKLPLETSYVKGLLKHDKFFQKALSNPIVAREFFEEYLPTEIKALFSPTTLTLENDSFIDPNLKESITDVLYSARINNRDCYIYILCEHQSSSDPHMAFRLFKYMLNIAEKHLISHPDSKKFPFIYPLVYSNDHKKYTAPLNLWDLFENSELVKDTWSNNYQLISLRDISDDKLKENPWLAPLQILMKYIHKPNVFDKWQEISGCLATIAASSSGIEYIKSALSYSLTKI” the “soluble on expression in E. coli” value was “not soluble”. In the case of “MSLKTKTFKMQLQFLSEQNLEINNNNQLLNQEKITYLQKIEQLKCKLEYQERMIKDSEKIREESFASAKAALFDLGKDLSKQLIEIHKMENNTTRELAEKNIETASQKFNTELERLITMVGALNKDIEQSKGTVDLIKQSLLSPIGAGLLSEITLENILKSSGLRPNLDFIMQYSLTTSDSVKLRPDAIIFLPSGNLMVIDSKASKFLVDSQDNSVHLSKTMNYHLKTLTNKDYAENILTNLNKKTQNFNNVITLMFLPTEQAVEKVIAANPEFLQKAWGCNIFPVGPAGLMNMLSFAKFQITDNRRSENYKVIIEEVRKLLSSIGTIADYSKKIGYNLQNMVTNYDKFAASFNRNVMSRVKSIQKLGIDSGNKIIPATLERYQIVSAKSEIIEVDVENQHKEGHHHHHH”, the “soluble on expression in E. coli” value is reported as “not soluble”. With “MYSLLTLLFVLFFSGSTLLVQCGGKKKGATSAEGKSSTMGPAPGGAPAAASAQGEPEEKE” the “soluble on expression in E. coli” value was “not soluble”. For “MAQGEKITVSNGVLNVPNNPIIPFIEGDGTGPDIWNAASKVLEAAVEKAYKGEKKITWKEVYAGEKAYNKTGEWLPAETLDVIREYFIAIKGPLTTPVGGGIRSLNVALRQELDLFVCLRPVRYFTGVPSPVKRPEDTDMVIFRENTEDIYAGIEYAKGSEEVQKLISFLQNELNVNKIRFPETSGIGIKPVSEEGTSRLVRAAIDYAIEHGRKSVTLVHKGNIMKFTEGAFKNWGYELAEKEYGDKVFTWAQYDRIAEEQGKDAANKAQSEAEAAGKIIIKDSIADIFLQQILTRPNEFDVVATMNLNGDYISDALAAQVGGIGIAPGANINYETGHAIFEATHGTAPKYAGLDKVNPSSVILSGVLLLEHLGWNEAADLVIKSMEKTIASKVVTYDFARLMDGATEVKCSEFGEELIKNMD”, the “soluble on expression in E. coli” value was “soluble”. For “ENRDCYSLYRMNPADGKIQQLEVSEDLVNSFSLAQNAPVMVYYGQSASNSDRLYTMNTKKMKSSLLEDLSKDILKDVELGECKAWSFTNSRGDTIYGRYYLPPHFDANRKYPMIVNYYGGCSPVSRNFESRYPHHAYAALGYVVYVIEPSGATGFGQEFSARHVNTAGEGVAQDIIEGTKQFCKEHAFVNDKKIGCIGASYGGFMTQYLQTQTDIFAAAISHAGISDHTSYWGEGYWGYSYSEVSMANSYPWSNPDLFVKQSPLFNADKIHTPLLFLHGDADVNVPVGESIQMFTALKLLGRETAFVAVTGQDHHIVDYGKRIQWQNTIFAWFAKWLQ”, the “soluble on expression in E. coli” value was “not soluble”. With “MGHHHHHHSHMSNPRSLEEEKYDMSGARLALILCVTKAREGSEEDLDALEHMFRQLRFESTMKRDPTAEQFQEELEKFQQAIDSREDPVSCAFVVLMAHGREGFLKGEDGEMVKLENLFEALNNKNCQALRAKPKVYIIQACRGEQRDPGETVGGDEIVMVIKDSPQTIPTYTDALHVYSTVEGYIAYRHDQKGSCFIQTLVDVFTKRKGHILELLTEVTRRMAEAELVQEGKARKTNPEIQSTLRKRLYLQ” the “soluble on expression in E. coli” value was “not soluble”. For “MAASVEQREGTIQVQGQALFFREALPGSGQARFSVLLLHGIRFSSETWQNLGTLHRLAQAGYRAVAIDLPGLGHSKEAAAPAPIGELAPGSFLAAVVDALELGPPVVISPSLSGMYSLPFLTAPGSQLPGFVPVAPICTDKINAANYASVKTPALIVYGDQDPMGQTSFEHLKQLPNHRVLIMKGAGHPCYLDKPEEWHTGLLDFLQGLQ”, the “soluble on expression in E. coli” value was “soluble”. In the case of “MSNIIKQLEQEQLKQNVPSFRPGDTLEVKVWVVEGSKRRLQAFEGVVIAIRNRGLHSAFTLRKVSNGVGVERVFQTHSPAVDSIAVKRKGAVRKAKLYYLRERSGKSARIKERLGALEHHHHHH”, the “soluble on expression in E. coli” value is reported as “not soluble”.
